Data: PMC10885436, “A novel AA14 LPMO from Talaromyces rugulosus with bifunctional cellulolytic/hemicellulolytic activity boosted cellulose hydrolysis” (Biotechnology for Biofuels and Bioproducts, 2024)

Substrate: COc1cccc(OC)c1O
Assay: purified protein
Type: biochemical, Talaromyces rugulosus
Conditions: co-substrate H2O2 fixed at 100 uM (below its Km, authors call kinetics insufficient), Cu(II)-saturated enzyme, 100 mM sodium phosphate pH 7.0, 37 C

B1: TrAA14A (Talaromyces rugulosus) (protein)
chain: HVVAWHPGMYCLGGNDTSVDDPNTNLAVNPLWDLPKSKWWFQADRGCDKAPPVDGVFLELPAGQNFTTELAHNRAQTTLSFNGQYAGEWPDGKDHPEDWSGTGTPPGCIQDDGAIHTNNQTMAGGTVFAISYQSDMSQVTMENLVVFSVLEHTPWKRIATYEVPADLPPCPDAGCICAWGWVPQGCGEPNMYMAGYKCKVTGSSSTKQLAQAQVPKYCANDTSECVGGAKQILVMNQADGNNVVAPDNDFVAYNEKWGFQNGAQNDIFM
notes: about 60 kDa glycosylated, about 30 kDa after Endo H; no dCTR
B1 showed a Km of 790 µM and a kcat of 1.32 s⁻¹.
